Molecular target: human tumor necrosis factor-α (TNFα) (human, UniProt P01375 77-233)
Assay: cell-based or functional assay

Sequence of human tumor necrosis factor-α (TNFα) (P01375 77-233): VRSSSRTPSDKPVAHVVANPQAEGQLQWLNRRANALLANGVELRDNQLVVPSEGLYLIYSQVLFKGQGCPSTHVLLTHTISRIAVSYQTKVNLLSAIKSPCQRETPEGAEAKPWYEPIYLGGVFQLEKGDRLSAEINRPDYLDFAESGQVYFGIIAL

B1: chimeric mouse/human IgG1 anti-platelet mAb (7E3) (antibody, INN chains, looked up, V domains shown)
VH: EVQLQQSGTVLARPGASVKMSCEASGYTFTNYWMHWVKQRPGQGLEWIGAIYPGNSDTSYIQKFKGKAKLTAVTSTTSVYMELSSLTNEDSAVYYCTLYDGYYVFAYWGQGTLVTVSA
VL: EIVLTQSPVTLSVTPGDSVSLSCRASRDISNNLHWFQQTSHESPRLLIKYASQSMSGIPSRFSGSGSGTDFTLSINSVETEDFGMYFCQQTNSWPYTFGGGTKLEIK
modifications: IgG1
  IL-6 secreted by FS-4 fibroblasts (ng/ml), rhTNF 0.3 ng/ml, antibody 4 µg/ml (no antibody: 1.36): 1.6 ng/mL
  IL-6 secreted by FS-4 fibroblasts (ng/ml), rhTNF 1.5 ng/ml, antibody 4 µg/ml (no antibody: 2.00): 1.96 ng/mL
  IL-6 secreted by FS-4 fibroblasts (ng/ml), rhTNF 7.5 ng/ml, antibody 4 µg/ml (no antibody: 2.56): 2.16 ng/mL

B2: p55-sf2 TNF receptor/IgG1 fusion protein (Fc fusion)
chain: QVCPQGKYIHPQNNSICCTKCHKGTYLYNDCPGPGQDTDCRECESGSFTASENHLRHCLSCSKCRKEMGQVEISSCTVDRDTVCGCRKNQYRHYWSENLFQCFNCSLCLNGTVHLSCQEKQNTVCTCHAGFFLRENECVSCSNCKKSLECTKLCLPQIGTLVTVSS
  IC50: concentration of fusion protein required to inhibit 2 ng/ml (39.2 pM) TNFα by 50%, WEHI 164 cytotoxicity assay: 70 pM
